Values of other authors, collected in article PMC11736853.
Like-named read-outs stand apart in the source and are kept apart here. One block for each substance: values may come before it.

How the values were obtained:
[1] = molecular target: CK2β triazole cyclised peptide (Homo sapiens) (UniProt P67870); assay: ITC
[2] = molecular target: AIF peptide 39 (Homo sapiens) (UniProt O95831)
[3] = molecular target: AIF peptide 39 (Homo sapiens) (UniProt O95831); assay: SPR
[4] = molecular target: AIF peptide 40 (Homo sapiens) (UniProt O95831); assay: SPR
[5] = molecular target: AIF bicyclic peptide 63 (Homo sapiens) (UniProt O95831)
[6] = molecular target: Nrf2 peptide 41 (Homo sapiens) (UniProt Q16236)
[7] = molecular target: TRF2 41-residue sequence (Homo sapiens) (UniProt Q15554)
[8] = molecular target: R6IP peptide 64 (Homo sapiens) (UniProt Q6IQ26)
[9] = molecular target: iNOS peptide 24 (Homo sapiens) (UniProt P35228); assay: ITC
RAP1 (Homo sapiens) = RAP1 (Homo sapiens) (UniProt Q9NYB0)
[10] = molecular target: BCL9 peptide 53 347-381 (Homo sapiens) (UniProt O00512); assay: FP
[11] = molecular target: BCL9 peptide 53 347-381 (Homo sapiens) (UniProt O00512); assay: competitive FP
[12] = molecular target: BCL9 peptide 54 351-375 (Homo sapiens) (UniProt O00512); assay: competitive FP
Chain of BCL9 peptide 54 351-375 (Homo sapiens) (O00512 351-375): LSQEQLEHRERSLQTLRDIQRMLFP

Chain of β-catenin (P35222 2-781): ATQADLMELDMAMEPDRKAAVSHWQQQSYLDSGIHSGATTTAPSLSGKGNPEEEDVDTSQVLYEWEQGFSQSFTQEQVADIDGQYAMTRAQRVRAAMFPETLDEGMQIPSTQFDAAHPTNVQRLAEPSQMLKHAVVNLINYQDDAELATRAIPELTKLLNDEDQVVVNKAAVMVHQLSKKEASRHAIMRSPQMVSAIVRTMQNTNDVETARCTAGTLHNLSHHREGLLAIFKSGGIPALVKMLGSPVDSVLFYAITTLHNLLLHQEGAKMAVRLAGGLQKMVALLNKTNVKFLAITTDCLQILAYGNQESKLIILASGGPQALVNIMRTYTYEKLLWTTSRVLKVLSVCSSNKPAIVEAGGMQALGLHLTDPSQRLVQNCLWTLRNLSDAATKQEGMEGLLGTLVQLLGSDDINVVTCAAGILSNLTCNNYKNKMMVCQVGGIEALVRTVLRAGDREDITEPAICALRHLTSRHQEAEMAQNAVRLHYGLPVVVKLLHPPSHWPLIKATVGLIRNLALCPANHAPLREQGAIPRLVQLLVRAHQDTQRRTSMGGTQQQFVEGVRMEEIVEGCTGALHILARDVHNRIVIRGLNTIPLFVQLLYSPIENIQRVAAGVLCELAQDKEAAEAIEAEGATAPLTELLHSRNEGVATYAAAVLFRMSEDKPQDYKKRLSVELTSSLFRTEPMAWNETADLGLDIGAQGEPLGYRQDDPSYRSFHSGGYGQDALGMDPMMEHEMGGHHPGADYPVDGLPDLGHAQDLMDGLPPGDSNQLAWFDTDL
Chain of CypA (P62937 2-165): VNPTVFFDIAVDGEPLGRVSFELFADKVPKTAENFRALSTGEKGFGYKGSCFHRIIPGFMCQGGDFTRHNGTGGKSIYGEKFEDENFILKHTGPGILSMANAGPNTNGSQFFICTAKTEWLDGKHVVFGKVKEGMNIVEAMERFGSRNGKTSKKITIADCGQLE
Chain of BCL9 peptide 53 347-381 (Homo sapiens) (O00512 347-381): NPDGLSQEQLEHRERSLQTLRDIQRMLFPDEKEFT
Chain of AIF peptide 39 (Homo sapiens) (O95831 370-394): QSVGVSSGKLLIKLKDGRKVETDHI
Chain of RAP1 (Q9NYB0 2-399): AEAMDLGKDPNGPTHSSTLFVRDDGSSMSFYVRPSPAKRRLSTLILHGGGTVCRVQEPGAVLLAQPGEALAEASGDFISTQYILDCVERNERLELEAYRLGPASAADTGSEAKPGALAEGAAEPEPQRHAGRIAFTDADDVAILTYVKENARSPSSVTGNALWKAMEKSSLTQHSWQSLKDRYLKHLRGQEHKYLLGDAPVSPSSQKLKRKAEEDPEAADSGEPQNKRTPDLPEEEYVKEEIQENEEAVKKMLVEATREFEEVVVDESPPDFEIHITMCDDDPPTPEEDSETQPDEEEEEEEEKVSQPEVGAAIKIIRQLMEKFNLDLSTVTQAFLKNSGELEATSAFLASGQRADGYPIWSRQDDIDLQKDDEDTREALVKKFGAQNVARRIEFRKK
Chain of RAP1 (Homo sapiens) (Q9NYB0 2-399): as above
Chain of Nrf2 peptide 41 (Homo sapiens) (Q16236 whole entry, looked up, tested part not stated): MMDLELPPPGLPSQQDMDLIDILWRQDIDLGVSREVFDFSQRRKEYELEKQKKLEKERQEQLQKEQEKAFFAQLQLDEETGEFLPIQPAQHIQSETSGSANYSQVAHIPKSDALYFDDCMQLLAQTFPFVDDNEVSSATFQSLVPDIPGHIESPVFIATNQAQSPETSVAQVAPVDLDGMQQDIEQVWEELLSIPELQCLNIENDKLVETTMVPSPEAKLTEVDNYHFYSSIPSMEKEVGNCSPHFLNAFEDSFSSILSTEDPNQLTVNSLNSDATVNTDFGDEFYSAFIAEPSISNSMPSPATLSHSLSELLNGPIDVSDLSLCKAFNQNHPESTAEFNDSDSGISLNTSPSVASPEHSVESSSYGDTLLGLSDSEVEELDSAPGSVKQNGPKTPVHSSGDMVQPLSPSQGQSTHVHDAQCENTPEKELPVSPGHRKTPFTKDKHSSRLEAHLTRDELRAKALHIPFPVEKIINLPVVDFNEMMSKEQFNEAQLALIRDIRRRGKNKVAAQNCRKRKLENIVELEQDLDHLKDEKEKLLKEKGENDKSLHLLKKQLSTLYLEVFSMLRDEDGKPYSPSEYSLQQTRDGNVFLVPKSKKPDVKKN
Chain of Rab6a (P20340 2-208): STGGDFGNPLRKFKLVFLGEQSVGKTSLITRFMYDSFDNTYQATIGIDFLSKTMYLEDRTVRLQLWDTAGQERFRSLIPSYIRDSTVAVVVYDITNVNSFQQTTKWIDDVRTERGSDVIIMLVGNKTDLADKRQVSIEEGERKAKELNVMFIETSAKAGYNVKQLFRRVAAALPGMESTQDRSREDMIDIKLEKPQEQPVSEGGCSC
Chain of Keap1 (Q14145 whole entry): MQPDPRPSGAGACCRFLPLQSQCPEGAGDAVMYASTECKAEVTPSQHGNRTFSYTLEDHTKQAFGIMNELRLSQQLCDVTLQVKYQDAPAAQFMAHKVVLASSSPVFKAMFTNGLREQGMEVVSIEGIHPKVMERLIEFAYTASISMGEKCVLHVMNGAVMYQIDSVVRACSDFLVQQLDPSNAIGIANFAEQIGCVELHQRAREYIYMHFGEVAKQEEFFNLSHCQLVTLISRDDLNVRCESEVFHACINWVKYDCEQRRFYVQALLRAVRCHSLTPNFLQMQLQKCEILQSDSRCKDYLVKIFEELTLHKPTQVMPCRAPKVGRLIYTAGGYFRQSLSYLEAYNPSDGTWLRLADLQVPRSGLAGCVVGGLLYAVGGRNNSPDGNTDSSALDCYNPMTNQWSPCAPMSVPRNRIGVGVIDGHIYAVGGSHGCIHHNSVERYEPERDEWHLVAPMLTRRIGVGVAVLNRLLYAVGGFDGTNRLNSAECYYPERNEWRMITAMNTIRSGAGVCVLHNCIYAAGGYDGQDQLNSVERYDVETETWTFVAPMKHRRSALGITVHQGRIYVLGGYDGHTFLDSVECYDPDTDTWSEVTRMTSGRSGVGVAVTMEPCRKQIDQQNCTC
Chain of CK2α (P68400 whole entry): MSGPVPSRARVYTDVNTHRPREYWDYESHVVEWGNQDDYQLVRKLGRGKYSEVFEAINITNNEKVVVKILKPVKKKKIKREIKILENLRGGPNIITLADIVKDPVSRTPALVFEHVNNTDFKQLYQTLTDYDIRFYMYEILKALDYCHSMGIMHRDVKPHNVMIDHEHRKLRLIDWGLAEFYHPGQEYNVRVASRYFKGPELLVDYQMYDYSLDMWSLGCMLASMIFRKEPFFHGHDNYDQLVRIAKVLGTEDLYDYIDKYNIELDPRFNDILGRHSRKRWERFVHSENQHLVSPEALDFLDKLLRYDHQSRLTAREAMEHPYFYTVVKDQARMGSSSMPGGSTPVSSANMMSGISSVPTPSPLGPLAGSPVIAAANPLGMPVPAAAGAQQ
Chain of AIF peptide 40 (Homo sapiens) (O95831 whole entry, looked up, tested part not stated): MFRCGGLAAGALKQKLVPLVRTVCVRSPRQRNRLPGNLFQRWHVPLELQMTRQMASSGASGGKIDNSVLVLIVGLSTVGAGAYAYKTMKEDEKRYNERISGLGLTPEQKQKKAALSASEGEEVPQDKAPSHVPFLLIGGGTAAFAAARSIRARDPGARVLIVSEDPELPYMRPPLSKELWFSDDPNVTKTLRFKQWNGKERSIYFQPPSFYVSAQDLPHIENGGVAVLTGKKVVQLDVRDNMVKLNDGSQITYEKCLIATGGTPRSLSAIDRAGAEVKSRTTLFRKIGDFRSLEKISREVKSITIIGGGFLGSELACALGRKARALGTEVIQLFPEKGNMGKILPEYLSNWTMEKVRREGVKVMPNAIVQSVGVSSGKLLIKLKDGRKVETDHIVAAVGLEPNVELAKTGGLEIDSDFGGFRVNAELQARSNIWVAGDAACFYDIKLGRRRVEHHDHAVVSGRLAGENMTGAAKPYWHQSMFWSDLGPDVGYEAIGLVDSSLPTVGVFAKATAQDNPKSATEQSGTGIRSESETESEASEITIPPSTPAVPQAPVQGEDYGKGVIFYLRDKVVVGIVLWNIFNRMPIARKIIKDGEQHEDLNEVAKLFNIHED
Chain of SPSB2 (Q99619 whole entry): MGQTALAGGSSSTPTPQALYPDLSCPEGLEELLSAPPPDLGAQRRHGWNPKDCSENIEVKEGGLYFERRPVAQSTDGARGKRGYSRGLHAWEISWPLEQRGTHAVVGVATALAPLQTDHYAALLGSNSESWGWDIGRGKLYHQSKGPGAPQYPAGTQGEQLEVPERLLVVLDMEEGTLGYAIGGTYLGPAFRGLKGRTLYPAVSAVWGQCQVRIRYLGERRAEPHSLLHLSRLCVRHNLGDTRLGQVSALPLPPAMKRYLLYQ
Chain of CK2β triazole cyclised peptide (Homo sapiens) (P67870 2-215): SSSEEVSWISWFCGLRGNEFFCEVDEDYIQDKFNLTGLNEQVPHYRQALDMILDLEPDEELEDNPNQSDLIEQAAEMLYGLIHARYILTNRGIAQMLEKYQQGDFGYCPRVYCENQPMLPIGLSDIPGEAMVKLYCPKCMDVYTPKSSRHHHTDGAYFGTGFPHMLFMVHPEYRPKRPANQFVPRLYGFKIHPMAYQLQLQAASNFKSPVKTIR

Kd [1]: 460 nM
Substance: CK2α (from UniProt P68400)

Kd [2]: 5000 nM
Kd [3]: 12000 nM
Kd [4]: 2400 nM
Kd [5]: 850 nM
Substance: CypA (from UniProt P62937)

Kd [6]: 27.3 nM
Substance: Keap1 (from UniProt Q14145)

Kd [7]: 16.5 nM
Substance: RAP1 (from UniProt Q9NYB0)

Kd [8]: 7800 nM
Substance: Rab6a (from UniProt P20340)

Kd [9]: 13.3 nM
Substance: SPSB2 (from UniProt Q99619)

Kd (RAP1 (Homo sapiens)): 16.5 nM
Substance: TRF2 41-residue peptide (from UniProt Q15554)

Kd [10]: 616 nM
Ki [11]: 960 nM
Ki [12]: 1900 nM
Substance: β-catenin (from UniProt P35222)
